The source of these data is patent US5580958, “Polypeptides encoding transcriptional activators and uses thereof” (La Jolla Cancer Research Foundation).

In the data set the target is PU.1 beta-galactosidase fusion (lambda 25.1, Ly25.1) (Mus musculus, UniProt P17433 P17433:1-272). In words: Southwestern blot with multimerized 33-mer; methylation interference protects three G in GAGGAA; lower affinity than PU-1. To be noted: tags: beta-galactosidase fusion, partially purified on anti-beta-gal Sepharose; label: 32P. How it is done: Production of beta-Galactosidase Fusion Protein and Western and Southwestern Analyses Lysogens were prepared from the lambda 25.1 and lambda 24.1 clones as described (Sturm et al., 1988) and the fusion proteins partially purified using anti-beta-galactosidase antibody bound to Sepharose (5 Prime - 3 Prime, Inc., Paoli, Pa.), as described by the manufacturer. Western and Southwestern analyses were carried out as described (Staudt et al., 1988).
Bacterial extracts prepared from lambda-gt11 and lambda 25.1 lysogens were fractionated on a 7.5% SDS-polyacrylamide gel, transferred to nitrocellulose and probed with labeled multimerized 33-mer. Only the lane with the lambda 25.1 extract contained a protein able to bind the probe. […] The positive filter was subsequently treated with rabbit antiserum to beta-galactosidase and mouse anti-rabbit immunoglobulin horseradish peroxidase conjugate. […] The appearance of several bands of lower molecular size are probably the result of degradation of the 150 kDa species. […] Some breakdown of the beta-galactosidase occurred in this sample resulting in a band at about 69 kDa.

B1: MHC class II I-A beta 33-mer (tetramer probe) (dsDNA)
DNA 1: GATCCGTCCCAAGTGAGGAACCAATCAGCATTG
DNA 2: CAATGCTGATTGGTTCCTCACTTGGGACGGATC
Consider B1, for which the binding result is “binds”.
